T1: human ASGPR (asialoglycoprotein receptor) (human, UniProt P07306 62-291)
T1 construct: also called human ASPGR; ASGPR antigen (human)
T1 sequence: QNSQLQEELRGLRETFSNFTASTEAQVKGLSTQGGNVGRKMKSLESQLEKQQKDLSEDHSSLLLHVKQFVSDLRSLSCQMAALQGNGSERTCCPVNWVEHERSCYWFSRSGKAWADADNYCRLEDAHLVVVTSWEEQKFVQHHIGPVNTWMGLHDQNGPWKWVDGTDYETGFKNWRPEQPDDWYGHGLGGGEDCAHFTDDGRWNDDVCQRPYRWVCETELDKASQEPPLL

T2: rat ASGPR (rat, UniProt P02706 61-284)
T2 construct: also called ASGPR antigen (rat)
T2 sequence: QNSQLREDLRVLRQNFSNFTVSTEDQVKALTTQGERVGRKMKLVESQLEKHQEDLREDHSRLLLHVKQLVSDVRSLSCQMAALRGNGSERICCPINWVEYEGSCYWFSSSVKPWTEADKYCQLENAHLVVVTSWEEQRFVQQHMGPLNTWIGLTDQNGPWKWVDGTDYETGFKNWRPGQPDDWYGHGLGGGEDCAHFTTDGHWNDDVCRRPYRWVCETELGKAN

T3: cynomolgus monkey ASGPR (cynomolgus monkey, UniProt P07306 62-291 (human entry))
T3 construct: also called cyno monkey ASGPR; cyno monkey ASPGR
T3 chain: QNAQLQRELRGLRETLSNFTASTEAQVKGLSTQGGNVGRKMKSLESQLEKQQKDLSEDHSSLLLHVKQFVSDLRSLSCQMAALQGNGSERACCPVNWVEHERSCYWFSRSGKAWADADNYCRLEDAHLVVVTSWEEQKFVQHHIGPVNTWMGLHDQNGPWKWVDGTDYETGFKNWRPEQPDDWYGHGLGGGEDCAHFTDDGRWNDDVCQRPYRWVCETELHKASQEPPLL


Columns and labels:
[1] = target: T1, human ASGPR (asialoglycoprotein …); test: ELISA (FIG. 16)
[2] = target: T2, rat ASGPR; test: ELISA (FIG. 16)
[3] = target: T3, cynomolgus monkey ASGPR; test: ELISA (FIG. 16)
[4] = target: T1, human ASGPR (asialoglycoprotein …); test: ELISA (FIG. 37)
Description: (§1) The activity of anti-ASGPR within Ins1-L3-Ab4 Fab and Ins1-L3-Ab5 Fab fusion proteins for human, rat, and cyno monkey ASGPR was tested by ELISA assay as shown in FIGS. 37-39 as generally described in Example 3. 100 ng/well ASGPR antigen (human, rat, and cyno monkey) was coated on 96-well plate in PBS 4° C. over night, blocked with 2% milk/PBST (0.5% Tween-20 in PBS) at room temperature for 1 hr, and incubated with the fusion proteins at 4 nM, 20 nM, 100 nM, and 500 nM in 2% milk/PBST at room temperature for 2 hr. Wells were then washed with PBST for 4-5 times, incubated with mouse anti-insulin (MA5-12037, ThermoFisher Scientific) in 2% milk/PBST at room temperature for 2 hr, washed with PBST for 4-5 times, incubated with goat anti-mouse IgG-HRP (115-035-008, Jackson ImmunoResearch) for 30 min, and washed with PBST for 4-5 times The plates were developed with QuantaBlu fluorogenic peroxidase substrate (Life technologies, 15169), and quantified using Spectramax fluorescence plate reader with excitation at 325 nm and emission at 420 nm.
(§2) The figures illustrate that anti-ASGPR antibodies fused to insulin therapeutic peptides retain activity for their antigen ASGPR as determined by ELISA assay.

[5] = target: T3, cynomolgus monkey ASGPR; test: ELISA (FIG. 39)
Description: as §1, §2

[6] = target: T2, rat ASGPR; test: ELISA (FIG. 38)
Description: as §1, §2

[7] = target: T2, rat ASGPR; test: ELISA, 100 ng/well coated ASGPR antigen, antibodies at 10, 1 and 0.1 nM, anti-kappa detection
Description: (§3) The activity of anti-ASGPR within the Ins1-L1-Ab1L IgG (SEQ ID NOS: 79, 29) and Ins1-L1-Ab1H IgG (SEQ ID NOS: 78, 30) fusion proteins for human ASGPR was tested by ELISA assay. Briefly, 100 ng/well ASGPR antigen (human, rat and cyno monkey) was coated on 96-well plate in PBS at 4° C. overnight; the wells were blocked with 2% milk/PBST (0.5% Tween-20 in PBS) at room temperature for 1 hr; antibodies were added in concentrations of 10 nM, 1 nM and 0.1 nM in 2% milk/PBST at room temperature for 2 hr; the wells were washed with PBST 4-5 times; anti-light chain kappa (sigma A7164) in 2% milk/PBST was added and the plate incubated at room temperature for 1 hr; the wells were washed with PBST 4-5 times; and the reaction was developed with QuantaBlu fluorogenic peroxidase substrate (Life technologies, 15169), and quantified using a Spectramax fluorescence plate reader with excitation at 325 nm and emission at 420 nm. […] The figures illustrate that anti-ASGPR antibodies fused to insulin therapeutic peptides retain activity for their antigen ASGPR.

[8] = target: T1, human ASGPR (asialoglycoprotein …); test: ELISA, coated ASGPR antigen (FIG. 3)
Description: as §3

binding result [1] | binding result [2] | binding result [3] | binding result [7] | binding result [8] | Binder | other results
binds | binds | binds | – | – | Ins1-L3-Ab4 Fab (Fab, also called Ins1-L3-Ab4L (Fab); Ins1-L3-Ab4L and Ab4H(Fab)) light: FVNQHLCGSDLVEALYLVCGERGFFYTDPTGGGPRRGIVEQCCHSICSLYQLENYCNGGGEAAAKEAAAKEAAAKAGGEIVLTQSPGTLSLSPGERATLSCSASSTISSNYLHWYQQKPGQAPRLLIYRTSDLASGIPDRFSGSGSGTDFTLTISRLEPEDFAVYYCQQGSSIPFTFGQGTKLEIKRTVAAPSVFIFPPSDEQLKSGTASVVCLLNNFYPREAKVQWKVDNALQSGNSQESVTEQDSKDSTYSLSSTLTLSKADYEKHKVYACEVTHQGLSSPVTKSFNRGEC heavy: QVQLVQSGAEVKKPGASVKVSCKASGYTFTNYWMHWVRQAPGQGLEWMGRIDLNSGGTNYNYAQKFQGRVTMTRDTSISTAYMELSRLRSDDTAVYYCARYYGSSWFAYWGQGTLVTVSSASTKGPSVFPLAPSSKSTSGGTAALGCLVKDYFPEPVTVSWNSGALTSGVHTFPAVLQSSGLYSLSSVVTVPSSSLGTQTYICNVNHKPSNTKVDKKVEPKSCDKTHT | –
binds | binds | binds | – | – | Ins1-L3-Ab4L IgG (antibody, Insulin immunoglobulin fusion protein: Ins1-L3-Ab4L light chain fusion paired with the full humanized heavy chain Ab4H; also called Ins1-L3-Ab4 IgG; Ins1-L3-Ab4L and Ab4H) light: FVNQHLCGSDLVEALYLVCGERGFFYTDPTGGGPRRGIVEQCCHSICSLYQLENYCNGGGEAAAKEAAAKEAAAKAGGEIVLTQSPGTLSLSPGERATLSCSASSTISSNYLHWYQQKPGQAPRLLIYRTSDLASGIPDRFSGSGSGTDFTLTISRLEPEDFAVYYCQQGSSIPFTFGQGTKLEIKRTVAAPSVFIFPPSDEQLKSGTASVVCLLNNFYPREAKVQWKVDNALQSGNSQESVTEQDSKDSTYSLSSTLTLSKADYEKHKVYACEVTHQGLSSPVTKSFNRGEC heavy: QVQLVQSGAEVKKPGASVKVSCKASGYTFTNYWMHWVRQAPGQGLEWMGRIDLNSGGTNYNYAQKFQGRVTMTRDTSISTAYMELSRLRSDDTAVYYCARYYGSSWFAYWGQGTLVTVSSASTKGPSVFPLAPSSKSTSGGTAALGCLVKDYFPEPVTVSWNSGALTSGVHTFPAVLQSSGLYSLSSVVTVPSSSLGTQTYICNVNHKPSNTKVDKKVEPKSCDKTHTCPPCPAPPVAGPSVFLFPPKPKDTLMISRTPEVTCVVVDVSHEDPEVKFNWYVDGVEVHNAKTKPREEQYNSTYRVVSVLTVLHQDWLNGKEYKCKVSNKGLPSSIEKTISKAKGQPREPQVYTLPPSRDELTKNQVSLTCLVKGFYPSDIAVEWESNGQPENNYKTTPPVLDSDGSFFLYSKLTVDKSRWQQGNVFSCSVMHEALHNHYTQKSLSLSPGK | –
– | – | – | – | – | Ins1-L3-Ab5 Fab (Fab, As Ins1-L3-Ab4 Fab but with the Ab5H Fab heavy chain (Ab4H mutated at position 50); also called Ins1-L3-Ab5L (Fab)) light: FVNQHLCGSDLVEALYLVCGERGFFYTDPTGGGPRRGIVEQCCHSICSLYQLENYCNGGGEAAAKEAAAKEAAAKAGGEIVLTQSPGTLSLSPGERATLSCSASSTISSNYLHWYQQKPGQAPRLLIYRTSDLASGIPDRFSGSGSGTDFTLTISRLEPEDFAVYYCQQGSSIPFTFGQGTKLEIKRTVAAPSVFIFPPSDEQLKSGTASVVCLLNNFYPREAKVQWKVDNALQSGNSQESVTEQDSKDSTYSLSSTLTLSKADYEKHKVYACEVTHQGLSSPVTKSFNRGEC heavy: QVQLVQSGAEVKKPGASVKVSCKASGYTFTNYWMHWVRQAPGQGLEWMGWIDLNSGGTNYNYAQKFQGRVTMTRDTSISTAYMELSRLRSDDTAVYYCARYYGSSWFAYWGQGTLVTVSSASTKGPSVFPLAPSSKSTSGGTAALGCLVKDYFPEPVTVSWNSGALTSGVHTFPAVLQSSGLYSLSSVVTVPSSSLGTQTYICNVNHKPSNTKVDKKVEPKSCDKTHT | binding result [4]: binds; binding result [5]: binds; binding result [6]: binds
– | – | – | binds | binds | Ins1-L1-Ab1H IgG (antibody, also called Ins-L1-Ab1H IgG) heavy: FVNQHLCGSDLVEALYLVCGERGFFYTDPTGGGPRRGIVEQCCHSICSLYQLENYCNGGGGSQVQLQQPGAELVKPGASVKLSCKASGYTFTNYWMHWVKQRPGRGLEWIGRIDLNSGGTNYNYNEKFKTKATLTVDKPSSTAYMQLSSLTSEDSAVYYCANYYGSSWFAYWGQGTTLTVSSAKTTAPSVYPLAPVCGDTTGSSVTLGCLVKGYFPEPVTLTWNSGSLSSGVHTFPAVLQSDLYTLSSSVTVTSSTWPSQSITCNVAHPASSTKVDKKIEPRGPTIKPCPPCKCPAPNLLGGPSVFIFPPKIKDVLMISLSPIVTCVVVDVSEDDPDVQISWFVNNVEVHTAQTQTHREDYNSTLRVVSALPIQHQDWMSGKEFKCKVNNKDLPAPIERTISKPKGSVRAPQVYVLPPPEEEMTKKQVTLTCMVTDFMPEDIYVEWTNNGKTELNYKNTEPVLDSDGSYFMYSKLRVEKKNWVERNSYSCSVVHEGLHNHHTTKSFSRTPGK light: ETVLTQSPTTMATSPGEKITITCSASSTISSNYLHWYQQKPGFSPKLLIYRTSDLASGVPTRFSGSGSGTSYSLTIGTMEAEDVATYYCQQGSSIPFTFGSGTKLEINRADTAPTVSIFPPSSEQLTSGGASVVCFLNNFYPKDINVKWKIDGSERQNGVLNSWTDQDSKDSTYSMSSTLTLTKDEYERHNSYTCEATHKTSTSPIVKSFNRNEC | –
– | – | – | binds | binds | Ins1-L1-Ab1L IgG (antibody, also called Ins-L1-Ab1L IgG; Ins1-L1-AbL IgG) light: FVNQHLCGSDLVEALYLVCGERGFFYTDPTGGGPRRGIVEQCCHSICSLYQLENYCNGGGGSETVLTQSPTTMATSPGEKITITCSASSTISSNYLHWYQQKPGFSPKLLIYRTSDLASGVPTRFSGSGSGTSYSLTIGTMEAEDVATYYCQQGSSIPFTFGSGTKLEINRADTAPTVSIFPPSSEQLTSGGASVVCFLNNFYPKDINVKWKIDGSERQNGVLNSWTDQDSKDSTYSMSSTLTLTKDEYERHNSYTCEATHKTSTSPIVKSFNRNEC heavy: QVQLQQPGAELVKPGASVKLSCKASGYTFTNYWMHWVKQRPGRGLEWIGRIDLNSGGTNYNYNEKFKTKATLTVDKPSSTAYMQLSSLTSEDSAVYYCANYYGSSWFAYWGQGTTLTVSSAKTTAPSVYPLAPVCGDTTGSSVTLGCLVKGYFPEPVTLTWNSGSLSSGVHTFPAVLQSDLYTLSSSVTVTSSTWPSQSITCNVAHPASSTKVDKKIEPRGPTIKPCPPCKCPAPNLLGGPSVFIFPPKIKDVLMISLSPIVTCVVVDVSEDDPDVQISWFVNNVEVHTAQTQTHREDYNSTLRVVSALPIQHQDWMSGKEFKCKVNNKDLPAPIERTISKPKGSVRAPQVYVLPPPEEEMTKKQVTLTCMVTDFMPEDIYVEWTNNGKTELNYKNTEPVLDSDGSYFMYSKLRVEKKNWVERNSYSCSVVHEGLHNHHTTKSFSRTPGK | –

Source: patent US20200115458A1 (CALIFORNIA INSTITUTE FOR BIOMEDICAL RESEARCH, published 2020)
